# From ChEMBL document CHEMBL3091431, “Aminopyridyl/Pyrazinyl Spiro[indoline-3,4'-piperidine]-2-ones As Highly Selective and Efficacious c-Met/ALK Inhibitors” (ACS Med Chem Lett, 2013)
# Compound: Nc1ncnc2c1ncn2[C@@H]1O[C@H](COP(=O)(O)OP(=O)(O)OP(=O)(O)O)[C@@H](O)[C@H]1O
# Assay: Inhibition of human ALK (unknown origin) using poly[Glu:Tyr] as substrate by nanoliter kinase assay
protein,measurement,value
"ALK tyrosine kinase receptor (Homo sapiens), Q9UM73 (protein) MGAIGLLWLLPLLLSTAAVGSGMGTGQRAGSPAAGPPLQPREPLSYSRLQRKSLAVDFVVPSLFRVYARDLLLPPSSSELKAGRPEARGSLALDCAPLLRLLGPAPGVSWTAGSPAPAEARTLSRVLKGGSVRKLRRAKQLVLELGEEAILEGCVGPPGEAAVGLLQFNLSELFSWWIRQGEGRLRIRLMPEKKASEVGREGRLSAAIRASQPRLLFQIFGTGHSSLESPTNMPSPSPDYFTWNLTWIMKDSFPFLSHRSRYGLECSFDFPCELEYSPPLHDLRNQSWSWRRIPSEEASQMDLLDGPGAERSKEMPRGSFLLLNTSADSKHTILSPWMRSSSEHCTLAVSVHRHLQPSGRYIAQLLPHNEAAREILLMPTPGKHGWTVLQGRIGRPDNPFRVALEYISSGNRSLSAVDFFALKNCSEGTSPGSKMALQSSFTCWNGTVLQLGQACDFHQDCAQGEDESQMCRKLPVGFYCNFEDGFCGWTQGTLSPHTPQWQVRTLKDARFQDHQDHALLLSTTDVPASESATVTSATFPAPIKSSPCELRMSWLIRGVLRGNVSLVLVENKTGKEQGRMVWHVAAYEGLSLWQWMVLPLLDVSDRFWLQMVAWWGQGSRAIVAFDNISISLDCYLTISGEDKILQNTAPKSRNLFERNPNKELKPGENSPRQTPIFDPTVHWLFTTCGASGPHGPTQAQCNNAYQNSNLSVEVGSEGPLKGIQIWKVPATDTYSISGYGAAGGKGGKNTMMRSHGVSVLGIFNLEKDDMLYILVGQQGEDACPSTNQLIQKVCIGENNVIEEEIRVNRSVHEWAGGGGGGGGATYVFKMKDGVPVPLIIAAGGGGRAYGAKTDTFHPERLENNSSVLGLNGNSGAAGGGGGWNDNTSLLWAGKSLQEGATGGHSCPQAMKKWGWETRGGFGGGGGGCSSGGGGGGYIGGNAASNNDPEMDGEDGVSFISPLGILYTPALKVMEGHGEVNIKHYLNCSHCEVDECHMDPESHKVICFCDHGTVLAEDGVSCIVSPTPEPHLPLSLILSVVTSALVAALVLAFSGIMIVYRRKHQELQAMQMELQSPEYKLSKLRTSTIMTDYNPNYCFAGKTSSISDLKEVPRKNITLIRGLGHGAFGEVYEGQVSGMPNDPSPLQVAVKTLPEVCSEQDELDFLMEALIISKFNHQNIVRCIGVSLQSLPRFILLELMAGGDLKSFLRETRPRPSQPSSLAMLDLLHVARDIACGCQYLEENHFIHRDIAARNCLLTCPGPGRVAKIGDFGMARDIYRASYYRKGGCAMLPVKWMPPEAFMEGIFTSKTDTWSFGVLLWEIFSLGYMPYPSKSNQEVLEFVTSGGRMDPPKNCPGPVYRIMTQCWQHQPEDRPNFAIILERIEYCTQDPDVINTALPIEYGPLVEEEEKVPVRPKDPEGVPPLLVSQQAKREEERSPAAPPPLPTTSSGKAAKKPTAAEISVRVPRGPAVEGGHVNMAFSQSNPPSELHKVHGSRNKPTSLWNPTYGSWFTEKPTKKNNPIAKKEPHDRGNLGLEGSCTVPPNVATGRLPGASLLLEPSSLTANMKEVPLFRLRHFPCGNVNYGYQQQGLPLEAATAPGAGHYEDTILKSKNSMNQPGP",Km,50 µM
